In PMC6733660 (Virology, 2019):
Numbering of substitutions follows the chain as printed. Read-outs that look alike come from different tables or passages of the source.

B1: humanized 72A1 (h72A1) (antibody, V domains shown)
VH: EVQLVESGGGLVQPGGSLRLSCAASGSSFTDYTMNWMRQSPGKGLEWIGLINPYNGGTRYADSVKGRATLSLDKSKNTAYLQMNSLRAEDTAIYYCAGGLRRVNWFAYWGQGTLVTVSS
VL: DAQLTQSPILLSASVGDRVTITCRSSTGAVTTSNYANWVQERTNGSFRGLIGGTNNRVPGVPSRFSGSLSGDDATLTISSLQPEDEADYFCVLWHSNHWVFGAGTKVEIK
B2: HB14 (antibody, V domains shown)
VH: SGAELVRPGASVNLSCKALGYTFTDYEMHWVKQTPVYGLEWIGTIHPRRGGTAYNQRFKGKAALTADKSSSTAYMELSSLTSEDSAVYYCARYGYPWYFDVWGAGTTVTVSS
VL: SLPVSLGDQASISCRSSQSIVHDNGNTYLEWYLQKPGQSPKLLIYKVSNRFSGVLDKFSGSGSGTDFTLKISRVEAEDLGIYYCFQGSHVPPTFGGGTKLEIK
B3: HB17 (antibody, V domains shown)
VH: ELVIPGASVKVSCKASGYTFTSYWIHWVKQWPGQGLEWIGEINPNNGHTNYNEKFKSKATLTVDKSSSTAYMQLSSLTSEDSAVYYCARNLFYYSRPDYWGQGTSVTVSS
VL: SLSASLGDRVTISCRASQDIGNYLNWYQQKPDGTIKLLIYYTSRLHSGVPSRFSGSGSGTDYSLTISNLEEEDIATYFCQQGNTLPPTFGGGTKLEIK
B4: HB22 (antibody, V domains shown)
VH: GLVAPSQSLSITCTVSGFSLTNYGIHWVRQPPGKGLEWLVVIWSDGSTIYNSALKSRLSISKDNSKSQVFLKMNSLQTDDTAMYYCARNYYGNSYPAWFAYWGQGTLVTVSA
VL: B2 VL with D23S, L55P, K57R, K70R, I81V, P92W
B5: HB2 (antibody, V domains shown)
VH: ELKKPGETVKISCKASGYTFTAYSMHWVKLTPGKGLKWMGWINTKTGEPTYADDFKGRFAFSLETSASTAYLQINNLKNEDTATYFCAPYGYALDYWGQGTSVTVSS
VL: ILSASPGEKVTMTCRATSSVNYMHWYQQKPGSSPKPWIYATSNLASGVPARFSGSGSGTSYSLTISRVEAEDAATYYCQQWSSNPPTFGAGTKLELK
B6: HB3 (antibody, V domains shown)
VH: B3 VH with I4R, V11L, T21A, I25M, H26Q, K54R, S57N, T60S, F92Y, S95G
VL: B3 VL
B7: HB6 (antibody, V domains shown)
VH: B5 VH with K3R, A22D, L30Q, K45R, T50R
VL: B5 VL
B8: HB7 (antibody, V domains shown)
VH: ELVRPGASVKLSCKALGYTFTDYEMHWVKQTPVHGLEWIGTISPGRSGTAYNQKFKGKATLTADKSSRTAYMELNSLTSEDSAVYYCSRYGHPSYLDVWGAGTTVTVSS
VL: FMSTSVGDRVNITCKASQSVGNAVAWFQQKPGQSPKLLIYSASNRYTGIPDRFTGSGSGTDFTLTCNNMQSEDLADYFCQQYSSYPLTFGAGTKLELK
B9: HB8 (antibody, V domains shown)
VH: ELKKPGETVKISCKASGYSFTNYGMNWVKQAPGKGLKWMGWINTYTGEPTYADDFKGRFAFSLETSASTAFLQINNLKNEDTATYLCARYYYGSVYSAWFAYWGQGTLVTVSA
VL: LSLPVSLGDQASISCRSSQSIVHSNGNTYLEWYLQKAGQSPKLLIYKVSNRFSGVPDRFGGSGSGTDFTLKISRVEAEDLGVYYCFQGSHVPYTFGGGTKLEIK
B10: HB9 (antibody, V domains shown)
VH: GGLVKPGGSLKLSCAASGFTFSSYTMSWVRQTPEKRLEWVATISSGGSYIYYPDSVKGRFTISRDNAKNTLYLQMSSLKSEDTAIYYCTREDFYYGSSYGFFDVWGAGTTVTVSS
VL: B9 VL
B11: HB5 (antibody, V domains shown)
VH: ELVRPGASVKISCKAFGYTFTNHNINWVKQRPGQGLDWIGYINPYNDYTSYNQKFKGKATLTVDKSSNTAYMELSSLTSEDSAVYYCARSEGWLRRGAWFAYWGQGTLVTVSA
VL: ILSVSPGERVSFSCRASQSIGTSIHWYQQRTNDSPRLLIKYASESISGIPPRFSGSGSGTDFTLSINSVESEDIADYHCQQSNSWPMLTFGAGTKLELK
B12: HB11 (antibody, V domains shown)
VH: SLVKPSQTLSLTCSVTGDSITSGFWNWIRKFPGNKLEYMGYISYSGSTYYNPSLKSRISITRDTSKNQYYLQLNSVTTEDTATYYCARGNGGNYDWYFDVWGAGTTVTVSS
VL: IMSASLGEKVTMSCRASSSVNFMNWYQQKSDDSPKLLIYYISNLAPGVPARFSGSGSGNSYSLTISGMEGEDAATYYCQQFTSSPSWTFGGGTKLEIK
B13: HB10 (antibody, V domains shown)
VH: B3 VH with I4R, V11L, I25M, L36P, N45S, K54R, S57N, F92Y, S95G
VL: B3 VL with I35V
B14: HB20 (antibody, V domains shown)
VH: B3 VH with I4K, V11L, H26Q, W31R, N45T, S57T, Q73R, F92Y, S95G
VL: B3 VL with I35V, E71Q, T84A
B15: murine 72A1 (m72A1) (antibody, V domains shown)
VH: EVQLQQSGPELVKPGTSMKISCKASGSSFTDYTMNWMKQSHGKNLEWIGLINPYNGGTRYNQKFKGKATLTLDKSSSTAYMEVLSLTSEDSAVYYCAGGLRRVNWFAYWGQGTLVSVSA
VL: QAVLTQESALTTSPGETVTLTCRSSTGAVTTSNYANWVQEKPDHLFTGLIGGTNNRVPGVPARFSGSLIGDKAALTITGAQTEDEAIYFCVLWHSNHWVFGGGTKLTVL

Tests used:
Assay in all cases: ELISA
[1] = target: T1, recombinant EBV gp350 ectodomain (aa 4–863) (Epstein-Barr virus, strain  …, UniProt P03200-1)
T1 sequence (P03200 4-863): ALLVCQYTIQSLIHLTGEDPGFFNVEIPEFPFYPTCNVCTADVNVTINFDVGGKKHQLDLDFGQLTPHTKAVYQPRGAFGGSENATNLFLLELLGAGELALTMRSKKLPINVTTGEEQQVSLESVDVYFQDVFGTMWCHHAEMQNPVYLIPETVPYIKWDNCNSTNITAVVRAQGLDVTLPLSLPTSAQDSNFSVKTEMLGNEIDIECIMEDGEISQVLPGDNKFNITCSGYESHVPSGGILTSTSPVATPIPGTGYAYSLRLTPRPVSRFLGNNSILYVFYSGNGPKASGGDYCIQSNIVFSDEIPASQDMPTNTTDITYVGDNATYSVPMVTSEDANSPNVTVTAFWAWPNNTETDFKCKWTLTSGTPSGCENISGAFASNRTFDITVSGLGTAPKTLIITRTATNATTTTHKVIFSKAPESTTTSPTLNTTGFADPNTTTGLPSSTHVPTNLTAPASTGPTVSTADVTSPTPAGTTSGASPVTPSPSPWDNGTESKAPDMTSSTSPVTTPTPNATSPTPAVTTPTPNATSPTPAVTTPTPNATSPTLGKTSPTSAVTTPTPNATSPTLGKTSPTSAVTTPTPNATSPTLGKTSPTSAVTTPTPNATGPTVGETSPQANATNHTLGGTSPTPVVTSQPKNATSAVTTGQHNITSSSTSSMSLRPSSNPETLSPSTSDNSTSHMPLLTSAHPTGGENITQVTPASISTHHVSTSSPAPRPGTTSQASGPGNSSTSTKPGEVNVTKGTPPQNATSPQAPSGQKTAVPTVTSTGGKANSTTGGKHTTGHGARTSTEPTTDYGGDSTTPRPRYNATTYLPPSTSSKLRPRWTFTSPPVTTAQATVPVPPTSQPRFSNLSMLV

Pep-8 (gp350 aa 142–161) = target: T2, Pep-8 (gp350 aa 142–161) (Epstein-Barr virus, strain B95-8)
T2 chain: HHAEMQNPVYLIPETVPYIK

[2] = target: T1, recombinant EBV gp350 ectodomain (aa …); remark: listed apart in the source

Row | Binder | binding result [1] | binding result (Pep-8 (gp350 aa 142–161)) | binding result [2]
1 | B1 | binds | binds | 
2 | B2 |  |  | binds
3 | B3 |  |  | binds
4 | B4 |  |  | binds
5 | B5 |  |  | binds
6 | B6 |  |  | binds
7 | B7 |  |  | binds
8 | B8 |  |  | binds
9 | B9 |  |  | binds
10 | B10 |  |  | binds
11 | B11 |  | binds | 
12 | B12 |  | binds | 
13 | B13 |  |  | binds
14 | B14 |  | binds | 
15 | B15 |  | binds | 
